Patent US20240417436A1 (BRIGHT PEAK THERAPEUTICS, published 2024)
*1 amine or outer side, *2 acyl side, *3 side chain or, on linkers, in order; H or OH if unused. Bridges are numbered along the chain shown (N, C = ends). Primed or numbered codes have the meaning given here. Side-chain parts run from the residue outwards. [ ]: non-standard residue; d: D form. Ygp″ = O-(PEG8-amino)-tyrosine (O-(8x polyethylene glycol-amino)-tyrosine); Yn3″ = O-(PEG9-azido)-tyrosine (O-(9x polyethylene glycol-azido)-tyrosine); Ygp = O-(8x polyethylene glycol-amino)-tyrosine; Yn3 = O-(9x polyethylene glycol-azido)-tyrosine; PABC = O=C(OCc1ccc(N[*:1])cc1)[*:2]; Ygp(3) = O-(PEG8-amino)-tyrosine; Yn3(3) = O-(PEG9-azido)-tyrosine; Cit = NC(=O)NCCC[C@H](N)C(=O)O; hSer = N[C@@H](CCO)C(=O)O; Nle = CCCC[C@H](N)C(=O)O; Dab = NCC[C@H](N)C(=O)O

T1: IL-2 receptor βγ complex on pan T cells (human, UniProt P14784 27-551; P31785 23-369)
T1 sequence (looked up) 1: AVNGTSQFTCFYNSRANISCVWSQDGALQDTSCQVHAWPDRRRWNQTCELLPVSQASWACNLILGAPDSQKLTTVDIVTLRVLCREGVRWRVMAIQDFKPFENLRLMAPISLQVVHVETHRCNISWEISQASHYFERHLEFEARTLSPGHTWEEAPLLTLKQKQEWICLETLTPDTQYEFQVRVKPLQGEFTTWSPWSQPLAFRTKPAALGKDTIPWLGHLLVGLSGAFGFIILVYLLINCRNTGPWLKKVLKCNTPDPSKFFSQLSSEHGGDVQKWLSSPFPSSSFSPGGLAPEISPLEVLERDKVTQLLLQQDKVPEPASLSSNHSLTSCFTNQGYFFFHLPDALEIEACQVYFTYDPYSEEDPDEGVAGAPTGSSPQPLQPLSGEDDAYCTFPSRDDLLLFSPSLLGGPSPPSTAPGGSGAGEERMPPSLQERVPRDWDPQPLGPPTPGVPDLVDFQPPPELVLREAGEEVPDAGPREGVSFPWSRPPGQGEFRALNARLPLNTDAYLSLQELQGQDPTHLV
T1 sequence (looked up) 2: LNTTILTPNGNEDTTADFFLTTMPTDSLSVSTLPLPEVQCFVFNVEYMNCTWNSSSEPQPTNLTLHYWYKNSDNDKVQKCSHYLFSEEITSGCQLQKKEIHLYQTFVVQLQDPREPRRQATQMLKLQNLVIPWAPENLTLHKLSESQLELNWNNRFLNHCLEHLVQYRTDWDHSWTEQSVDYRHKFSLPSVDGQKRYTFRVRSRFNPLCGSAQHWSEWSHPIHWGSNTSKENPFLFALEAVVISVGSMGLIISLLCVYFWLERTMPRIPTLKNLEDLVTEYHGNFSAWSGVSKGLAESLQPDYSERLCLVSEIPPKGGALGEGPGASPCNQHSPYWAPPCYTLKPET

T2: recombinant human IL-2 receptor beta containing a His-tag and Avi-Tag (R&D Systems #AVI10459) (human, UniProt P14784 27-239)
T2 construct: bought protein, held on the Octet SAX2 sensor; also called CD122; IL-2Rβ
T2 sequence (looked up): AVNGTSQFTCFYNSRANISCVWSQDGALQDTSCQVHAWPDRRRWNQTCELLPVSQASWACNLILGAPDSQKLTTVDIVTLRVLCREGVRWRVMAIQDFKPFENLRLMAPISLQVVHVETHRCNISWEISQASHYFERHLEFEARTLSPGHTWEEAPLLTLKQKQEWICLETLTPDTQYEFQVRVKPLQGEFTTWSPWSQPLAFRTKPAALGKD

T3: Avi-Tag Fc with human IL-2R beta and IL-2R gamma attached (Acrobiosystems ACRB-ILG-H82F3-25UG) (human, UniProt P14784 27-239; P31785 23-262)
T3 construct: bought heterodimer; also called CD122 CD132; CD122/CD132 complex
T3 sequence (looked up) 1: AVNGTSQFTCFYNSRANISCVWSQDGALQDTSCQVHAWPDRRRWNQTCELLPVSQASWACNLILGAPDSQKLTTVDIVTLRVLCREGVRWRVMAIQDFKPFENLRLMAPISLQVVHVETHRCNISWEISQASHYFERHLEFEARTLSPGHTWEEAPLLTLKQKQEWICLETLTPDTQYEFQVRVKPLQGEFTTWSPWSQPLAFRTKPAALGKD
T3 sequence (looked up) 2: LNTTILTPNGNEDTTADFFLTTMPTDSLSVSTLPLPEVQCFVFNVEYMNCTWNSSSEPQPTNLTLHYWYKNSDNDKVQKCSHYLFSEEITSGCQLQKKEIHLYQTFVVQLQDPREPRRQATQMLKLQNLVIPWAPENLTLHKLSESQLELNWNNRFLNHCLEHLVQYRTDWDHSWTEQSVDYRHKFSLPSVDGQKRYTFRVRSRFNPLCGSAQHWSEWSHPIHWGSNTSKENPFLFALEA


Legend:
[1] = molecular target: T1, IL-2 receptor βγ complex on pan T cells; experiment: cell-based or functional assay
[2] = molecular target: T2, recombinant human IL-2 receptor beta …; experiment: BLI (Octet), receptor on SAX2 sensor, MMP2-treated IL-2 as analyte
Experimental: (§1) Bilayer interferometry (BLI) assays were used to measure the binding constants between activatable IL-2 polypeptides (and activated versions thereof) to IL-2 receptor subunits or receptor complexes. BLI assays were conducted on an Octet® R8 instrument. Assay plates were 96 well, polypropylene, F-bottom (chimney well), black microplates (Greiner Bio-one, Cat. No: 655209). The biosensors were Octet® SAX2 (Sartorius, Cat. No: 18-5136). The assay buffer was 1× Kinetic Buffer (Sartorius, Cat. no: 18-5136) or Phosphate Buffered Saline (PBS) that contained 0.02% (v: v) Tween 20 (Polysorbate 20) and 0.1% (w/v) bovine serum albumin (BSA). The sensor was regenerated between measurements in 10 mM glycine pH 2.7 buffer.
(§2) Sensor attached receptors were either recombinant human IL-2 receptor beta containing a His-tag and Avi-Tag™ (R&D Systems™ #AVI10459) or an Avi-Tag™ Fc with human IL-2R beta and IL-2R gamma attached (Acrobiosystems Cat. no: ACRB-ILG-H82F3-25UG). Receptors were reconstituted from lyophilized powder to 500 μg/ml in PBS. Analytes were diluted in Kinetic buffer to 300 nM, then serially diluted to lower concentrations.

[3] = molecular target: T3, Avi-Tag Fc with human IL-2R beta and …; experiment: as above
Experimental: as §1, §2

[4] = molecular target: T1, IL-2 receptor βγ complex on pan T cells; experiment: cell-based or functional assay; remark: listed apart in the source

Average EC50, pSTAT5 assay in pan T cells, MMP2 cleaved molecule [1] [nM]	Kd [2] [µM]	koff [2] [s⁻¹]	kon [2] [M⁻¹ s⁻¹]	Kd [3] [µM]	koff [3] [s⁻¹]	kon [3] [M⁻¹ s⁻¹]	Average EC50, pSTAT5 assay in pan T cells, intact molecule [4] [nM]	Binder
1.42	1.11	0.237	213000	0.00187	0.00114	608000	–	CMP-165, MMP2 cleaved (ligand, disulfide 58-105 (inferred); not fully specified (residue 23, N-terminus); also: MMP2 cleaved, ring opened, cut site not given here, peptide remnants on N-terminus (via glutaryl) and on Lys23 side chain) APTSSSTKKTQLQLEHLLLDLQKILNGINNYKNPKLTR[Nle]L[hSer][Yn3]KF[Ygp][Nle]PKKATELKHLQCLEEELKPLEEVL[hSer]LAQSKNFHLRPRDLISNINVIVLELKGSETTF[hSer]CEYADETATIVEFLNRWITFSQSIISTLT
6.3	1370	1.08	789	0.00227	0.00164	602000	–	CMP-168, MMP2 cleaved (ligand, disulfide 58-105 (inferred); not fully specified (residues 9, 23); also: cleaved by MMP2, bridge opened, remnants on Lys9 and Glu23 not defined) APTSSSTKKTQLQLEHLLLDLQEILNGINNYKNPKLTR[Nle]L[hSer][Yn3]KF[Ygp][Nle]PKKATELKHLQCLEEELKPLEEVL[hSer]LAQSKNFHLRPRDLISNINVIVLELKGSETTF[hSer]CEYADETATIVEFLNRWITFSQSIISTLT
–	–	–	–	–	–	–	56.9	CMP-131 (ligand, not fully specified; ends and bridges not checked) APTSSSTKKTQLQLEK([PABC-Cit-Val-Glu-Ac])LLLDLQ[Nle]ILNGINNYKNPKLTR[Nle]L[hSer][Yn3″]KF[Ygp″][Nle]PKKATELKHLQCLEEELKPLEEVL[hSer]LAQSKNFHLRPRDLISNINVIVLELKGSETTF[hSer]CEYADETATIVEFLNRWITFSQSIISTLT
4.36	0.794	0.225	283000	0.00121	0.000684	567000	–	CMP-166, MMP2 cleaved (ligand, not fully specified; as CMP-166 but cleavable peptide cut by MMP2 (macrocycle opened); cut site not given) APTSSSTKKTQLQLEHLLLDLQKILNGINNYKNPKLTRXLXYKFYXPKKATELKHLQCLEEELKPLEEVLXLAQSKNFHLRPRDLISNINVIVLELKGSETTFXCEYADETATIVEFLNRWITFSQSIISTLT
5.31	0.658	0.227	345000	0.00155	0.000923	594000	–	CMP-167, MMP2 cleaved (ligand, not fully specified; as CMP-167 but cleavable peptide cut by MMP2 (macrocycle opened); cut site not given) APTSSSTKKTQLQLEHLLLDLQKILNGINNYKNPKLTRXLXYKFYXPKKATELKHLQCLEEELKPLEEVLXLAQSKNFHLRPRDLISNINVIVLELKGSETTFXCEYADETATIVEFLNRWITFSQSIISTLT
–	–	–	–	–	–	–	66.8	CMP-130 (ligand) APTSSSTKKTQLQLE[Dab]LLLDLQ[Nle]ILNGINNYKNPKLTR[Nle]L[hSer][Yn3(3)]KF[Ygp(3)][Nle]PKKATELKHLQCLEEELKPLEEVL[hSer]LAQSKNFHLRPRDLISNINVIVLELKGSETTF[hSer]CEYADETATIVEFLNRWITFSQSIISTLT
